Experimental data reported in patent US20250145690A1 (US Dept. of Health and Human Services, published 2025).
Substitutions are numbered along the chain they refer to.

B1: COV49-18 (antibody, V domains shown)
VH: EVQLLESGGGLVQPGGSLRVSCAVSGFTFSNYAMSWVRQAPGKGLDWVSAISGSGETRYYADFVKGRFTISRDNSKNTLYLQMNSLRGEDTAVYYCVKGAFYNILSSIIVEGDYWGQGTLVTVSS
VL: DVVMTQSPLSLPVTLGQPASISCRSSQSLVFSDGNTYLNWFQQRPGQSPRRLIYKVSKRDSGVPDRFSGSGSGTDFTLKISRVEAEDVGVYYCMQGTHWLSITFGQGTRLEIK
B2: COV77-35 (antibody, V domains shown)
VH: QMQLQESGPGLVKPSQTLSLTCAVSGGSISSDGYYWNWVRQHPGKGLELIAYIYYNGRPYYNPSLRSRVNISLDTSMNQFSLRVKSLTAADTAVYYCARGRLGYCAAGSCFLDSFDYWGQGALVTVSS
VL: EIVMTQYPATLSVSPGETATLSCRASESISRNLAWYQQKPGQAPRLLIYGASTRATGIPARFSGSGSGTEFALTISSLQAEDFAVYSCQQYHNWLLTFGGGTKVEIK
B3: COV77-14 (antibody, V domains shown)
VH: QVQLQESGPGLVKASQTLSLTCAVSGGSISSGDYYWTWIRSHPGKGLEWIAYIYYNGRTYYNPSLKSRLTISIDRSKNEFSLKVRSVTAADSAAYYCARGRLGFCAAGSCFLDSLDFWGQGTLVTVSS
VL: B2 VL with Y7S, T18R, A19V, R31N, T74I, A80S, S87F, H92Y
B4: COV57-45 (antibody, V domains shown)
VH: QVQLVQSGTEVKKPGSSVKVSCRASGGTLSSYSVSWVRQAPGQGLEWMGRIIPILDKKTYAQKYQGRVTILADTSTSTVYMELSSLKSDDSAVYFCTTFDYDTSGQRDQHDYWGQGTPVTVSS
VL: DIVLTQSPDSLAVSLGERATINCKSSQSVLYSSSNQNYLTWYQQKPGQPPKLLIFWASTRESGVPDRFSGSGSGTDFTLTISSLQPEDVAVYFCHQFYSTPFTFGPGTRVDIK
B5: COV77-76 (antibody, V domains shown)
VH: QVQLQESGPGLVKPSETLSLTCTVSGGSISSFYWSWIRQPPGKRLEWIGYIYYRGSTNYNPSLKSRVTMSVDTSKNQFSLKLSSVTAADTAVYYCARELPNNWLDPWGQGTLVTVSS
VL: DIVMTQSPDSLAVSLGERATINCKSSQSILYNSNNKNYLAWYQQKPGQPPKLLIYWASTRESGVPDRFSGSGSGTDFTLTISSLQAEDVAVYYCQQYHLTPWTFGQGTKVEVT
B6: COV57-19 (antibody, V domains shown)
VH: QVQLQESGPGLVKPSGTLSLTCAVSGDSISSSNWWSWVRQPPGKGLEWIGEIYQSGTTNNNPSLKSRVTISIDKSKNQFSLNLTSVTAADTAVYYCARAPLVFRSYGMDVWGQGTTVTVSS
VL: DIQMTQSPSSLSASVGDRVTITCRASQTIRTYLNWYQQKPGKAPKLLIYDASNLQSGVPSRFSGSGSGTDFTLTISSLEPEDFATYYCQQSYITPPWTFGQGTKVEIK
B7: COV57-05 (antibody, V domains shown)
VH: B6 VH with Q5L, A23D, P41S
VL: B6 VL with K104R
B8: COV77-43 (antibody, V domains shown)
VH: QVQLVESGGGVVQPGRSLRLSCSASGFTFSDYGMNWVRQAPGKGLEWVAMIWYDGSNYFYRDSVKGRFAISRDNSKNMVFLQMDNLRAEDTAVYFCARGTHFWSGLSLDAFDMWGQGTVVTVSS
VL: EIVMTQSPLSLPVTPGEPASISCRSSRSLLHYNGHNYLDWYLQKPGQSPQLLIYLGSNRAPGVPDRFSGSGSGTDFTLKISRVEAEDVGVYYCMQALQLNLITFGQGTRLEIK
B9: COV93-60 (antibody, V domains shown)
VH: QVQLQESGPGLVKPSETLFLTCAVSGGSINSSYWSWIRQPPGKGLEWIGYIYYRGSTNYNPSLKSRVTISVDTSKNQFSLKLNSVTAADTAIYYCARENLWNWFDPWGQGILVTVSS
VL: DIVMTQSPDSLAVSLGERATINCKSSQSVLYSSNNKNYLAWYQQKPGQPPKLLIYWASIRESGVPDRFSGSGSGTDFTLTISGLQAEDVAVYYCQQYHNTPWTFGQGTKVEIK
B10: COV77-46 (antibody, V domains shown)
VH: QVQLQESGPGLVKPSQPLSLTCAVSGDSISSGGNYWSWIRQHPGKGLECIAYFYYTGRTYYNPSLKSRVTISLDTSKNQFSLKVSSVTAADTAVYFCARGRLGHCGGGSCFLDPLDYWGQGSLVTVSS
VL: EIVMTQSPATLSVSPGERATLSCRASERISSNLAWSQHKVGQAPRLLIYGASTRATGIPARFSGSGSGTEFTLTISSLQSEDFAVYYCHQYHNWLLTFGGGTKVEIK

Each binder was assayed against T1, HCoV-229E spike protein (Sino Biological 40605-V08B) (HCoV-229E, UniProt P15423 16-1115) (assay: bead flow cytometry, AUC minus CD4).
T1 sequence: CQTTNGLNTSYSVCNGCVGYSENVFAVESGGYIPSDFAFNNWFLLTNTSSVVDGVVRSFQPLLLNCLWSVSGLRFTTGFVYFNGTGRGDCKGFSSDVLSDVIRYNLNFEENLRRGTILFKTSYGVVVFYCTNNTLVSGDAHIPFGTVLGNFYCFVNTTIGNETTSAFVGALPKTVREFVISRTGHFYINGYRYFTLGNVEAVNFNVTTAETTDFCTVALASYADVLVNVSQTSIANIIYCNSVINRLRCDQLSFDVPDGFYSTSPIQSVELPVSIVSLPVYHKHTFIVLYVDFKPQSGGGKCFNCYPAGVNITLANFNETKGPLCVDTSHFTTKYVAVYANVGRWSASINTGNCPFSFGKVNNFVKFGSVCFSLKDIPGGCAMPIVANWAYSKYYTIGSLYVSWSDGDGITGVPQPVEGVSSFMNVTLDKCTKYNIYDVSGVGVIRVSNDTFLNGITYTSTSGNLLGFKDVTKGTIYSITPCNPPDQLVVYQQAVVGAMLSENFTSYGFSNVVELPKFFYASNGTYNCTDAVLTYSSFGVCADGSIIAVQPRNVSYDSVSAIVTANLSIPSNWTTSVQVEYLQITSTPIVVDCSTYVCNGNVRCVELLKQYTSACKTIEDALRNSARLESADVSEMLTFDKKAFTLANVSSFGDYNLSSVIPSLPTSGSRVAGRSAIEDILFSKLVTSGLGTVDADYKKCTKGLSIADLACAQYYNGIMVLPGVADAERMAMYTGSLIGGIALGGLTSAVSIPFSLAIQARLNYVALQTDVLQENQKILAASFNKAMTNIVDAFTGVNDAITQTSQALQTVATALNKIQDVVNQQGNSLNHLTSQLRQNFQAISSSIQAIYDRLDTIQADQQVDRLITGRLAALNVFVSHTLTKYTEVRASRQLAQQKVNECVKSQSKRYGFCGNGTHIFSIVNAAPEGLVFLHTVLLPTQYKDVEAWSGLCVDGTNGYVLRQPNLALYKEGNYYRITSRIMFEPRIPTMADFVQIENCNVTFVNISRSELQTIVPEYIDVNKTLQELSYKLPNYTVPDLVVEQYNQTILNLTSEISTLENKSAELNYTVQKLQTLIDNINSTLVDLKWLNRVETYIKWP

| Binder | binding result |
| --- | --- |
| B1 | no binding (tested: 200 µg/mL) |
| B2 | no binding (tested: 200 µg/mL) |
| B3 | no binding (tested: 200 µg/mL) |
| B4 | no binding (tested: 200 µg/mL) |
| B5 | no binding (tested: 200 µg/mL) |
| B6 | no binding (tested: 200 µg/mL) |
| B7 | no binding (tested: 200 µg/mL) |
| B8 | no binding (tested: 200 µg/mL) |
| B9 | no binding (tested: 200 µg/mL) |
| B10 | no binding (tested: 200 µg/mL) |

What follows are binders tested against T2, HCoV-NL63 spike protein (Sino Biological 40604-V08B) (HCoV-NL63, UniProt Q6Q1S2 19-1296) (assay: bead flow cytometry, AUC minus CD4).
T2 sequence: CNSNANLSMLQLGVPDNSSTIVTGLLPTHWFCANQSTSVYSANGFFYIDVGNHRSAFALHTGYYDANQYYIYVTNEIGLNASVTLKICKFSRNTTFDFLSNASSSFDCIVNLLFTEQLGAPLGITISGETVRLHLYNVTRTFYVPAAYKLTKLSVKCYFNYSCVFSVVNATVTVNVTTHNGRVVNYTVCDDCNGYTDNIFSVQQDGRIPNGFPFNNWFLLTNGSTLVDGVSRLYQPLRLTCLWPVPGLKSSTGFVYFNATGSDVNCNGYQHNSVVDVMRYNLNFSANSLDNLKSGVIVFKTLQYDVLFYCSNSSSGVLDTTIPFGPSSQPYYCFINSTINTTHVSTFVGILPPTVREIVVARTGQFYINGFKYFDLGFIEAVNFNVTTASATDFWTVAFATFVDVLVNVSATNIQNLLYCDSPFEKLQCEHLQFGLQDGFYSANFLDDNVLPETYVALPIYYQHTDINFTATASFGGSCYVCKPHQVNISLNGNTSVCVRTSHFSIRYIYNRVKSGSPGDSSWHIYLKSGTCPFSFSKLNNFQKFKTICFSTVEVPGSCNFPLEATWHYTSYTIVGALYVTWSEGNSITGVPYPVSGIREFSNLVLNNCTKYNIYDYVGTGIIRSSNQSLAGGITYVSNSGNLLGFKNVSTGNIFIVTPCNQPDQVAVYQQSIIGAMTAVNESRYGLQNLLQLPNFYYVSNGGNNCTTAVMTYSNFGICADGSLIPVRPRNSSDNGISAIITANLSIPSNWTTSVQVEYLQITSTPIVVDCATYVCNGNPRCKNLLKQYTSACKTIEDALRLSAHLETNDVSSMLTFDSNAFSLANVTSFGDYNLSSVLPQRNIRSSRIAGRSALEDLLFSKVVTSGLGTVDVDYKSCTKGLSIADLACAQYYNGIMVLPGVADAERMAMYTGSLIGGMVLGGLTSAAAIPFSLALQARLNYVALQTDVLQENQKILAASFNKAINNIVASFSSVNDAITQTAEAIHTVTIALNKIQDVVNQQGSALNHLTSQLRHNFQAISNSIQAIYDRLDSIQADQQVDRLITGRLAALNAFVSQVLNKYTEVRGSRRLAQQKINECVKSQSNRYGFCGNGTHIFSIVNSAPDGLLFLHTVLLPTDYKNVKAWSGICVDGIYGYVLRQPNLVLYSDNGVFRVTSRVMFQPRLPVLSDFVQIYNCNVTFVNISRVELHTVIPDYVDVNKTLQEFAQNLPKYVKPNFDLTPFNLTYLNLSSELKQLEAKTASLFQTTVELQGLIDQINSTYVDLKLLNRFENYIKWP

| Binder | binding result |
| --- | --- |
| B1 | no binding (tested: 200 µg/mL) |
| B2 | no binding (tested: 200 µg/mL) |
| B3 | no binding (tested: 200 µg/mL) |
| B4 | no binding (tested: 200 µg/mL) |
| B5 | no binding (tested: 200 µg/mL) |
| B6 | no binding (tested: 200 µg/mL) |
| B7 | no binding (tested: 200 µg/mL) |
| B8 | no binding (tested: 200 µg/mL) |
| B9 | no binding (tested: 200 µg/mL) |
| B10 | no binding (tested: 200 µg/mL) |

Each binder was assayed against SARS-CoV-2 spike receptor binding domain (RBD), recombinant (SARS-CoV-2, UniProt P0DTC2 319-541) (assay: bead flow cytometry, AUC minus CD4).

| Binder | binding result |
| --- | --- |
| B1 | no binding (tested: 200 µg/mL) |
| B2 | no binding (tested: 200 µg/mL) |
| B3 | no binding (tested: 200 µg/mL) |
| B4 | no binding (tested: 200 µg/mL) |
| B5 | no binding (tested: 200 µg/mL) |
| B6 | no binding (tested: 200 µg/mL) |
| B7 | no binding (tested: 200 µg/mL) |
| B8 | no binding (tested: 200 µg/mL) |
| B9 | no binding (tested: 200 µg/mL) |
| B10 | no binding (tested: 200 µg/mL) |

What follows are binders tested against SARS-CoV-2 spike N-terminal domain (NTD), recombinant (SARS-CoV-2, UniProt P0DTC2 14-305) (assay: bead flow cytometry, AUC minus CD4).

| Binder | binding result |
| --- | --- |
| B1 | no binding (tested: 200 µg/mL) |
| B2 | no binding (tested: 200 µg/mL) |
| B3 | no binding (tested: 200 µg/mL) |
| B4 | no binding (tested: 200 µg/mL) |
| B5 | no binding (tested: 200 µg/mL) |
| B6 | no binding (tested: 200 µg/mL) |
| B7 | no binding (tested: 200 µg/mL) |
| B8 | no binding (tested: 200 µg/mL) |
| B9 | no binding (tested: 200 µg/mL) |
| B10 | no binding (tested: 200 µg/mL) |
